Data: paper PMC3206076, “Structural, Stability, Dynamic and Binding Properties of the ALS-Causing T46I Mutant of the hVAPB MSP Domain as Revealed by NMR and MD Simulations” (PLoS ONE, 2011)
Values belong to the molecule of their own block, whether it stands above or below them.

Assays:
[1] = target: Nir2 peptide FFAT motif (Homo sapiens) (UniProt O00562); test: ITC; details: cited from earlier work
[2] = target: T46I mutant of the hVAPB MSP domain (human, UniProt O95292 1-125, T46I); test: ITC
Target sequence in this assay (O95292 1-125 T46I): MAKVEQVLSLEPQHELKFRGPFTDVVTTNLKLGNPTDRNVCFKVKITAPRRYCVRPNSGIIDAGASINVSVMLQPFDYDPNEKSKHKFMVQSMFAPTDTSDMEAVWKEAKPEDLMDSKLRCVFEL

[3] = target: T1, T46I mutant of the hVAPB MSP domain (human, UniProt O95292 1-125, T46I); test: ITC; Microcal VP; peptide or EphA4 (300 µM) in the syringe, MSP protein (10 µM) in the cell; 50 mM Tris-HCl, 150 mM NaCl, 2 mM DTT, pH 7.5, 25°C; single binding site model; details: both partners purified
T1 construct: human VAPB MSP domain, residues 1-125, with the ALS-causing T46I mutation found in non-Brazilian kindred; Made by site-directed mutagenesis on the WT-MSP construct; PDB 3IKK is the structure of the WT parent; 15N-labelled for the HSQC titrations in which its own spectrum was observed; also called T46I-MSP domain; T46I-MSP
T1 sequence (O95292 1-125 T46I): as above

[4] = target: T2, wild-type (WT) hVAPB MSP domain (residues 1–125) (human, UniProt O95292 1-125); test: NMR titration; 1H-15N HSQC of 15N-labeled WT-/T46I-MSP (100 µM) without or with unlabeled Nir2 peptide or EphA4 at molar ratios 1:0.5 to 1:8; 10 mM phosphate buffer, pH 6.8, 25°C; details: both partners purified
T2 construct: human VAPB (vesicle-associated membrane protein-associated protein B), MSP domain, residues 1-125; 15N-labelled for the HSQC titrations in which its own spectrum was observed; also called WT-MSP domain; WT-MSP
T2 sequence (O95292 1-125): as the sequence (O95292 1-125 T46I) above, with I46T counted along it

Molecule: VAPB MSP (from UniProt O95292)
Kd [1]: 650 nM

Ka [2]: 455000 M⁻¹ | Kd [3]: 2200 nM | binding result [4]: binds
B1: Nir2 peptide (EEEFFDAHE) (peptide)
peptide: EEEFFDAHE
notes: FFAT-motif peptide of the Nir2 protein; also called the peptide; source: synthetic peptide, bought: Genesis Biotech Inc., further purified by HPLC (reverse-phase C18)
